Substrate in this data set: O=C(CNC(=O)OCc1ccccc1)N[C@@H](Cc1ccccc1)C(=O)O
The data set is described as follows: Michaelis constant and maximum reaction velocity, hydrolysis of Nα-carbobenzoxyglycyl-L-phenylalanine (ninhydrin method). Conditions: other: substrate concentration varied from 0.02 to 0.1 M; 25.0 °C. Format: biochemical, porcine. As to the method:
The enzyme activity of the enzyme of the invention for Nα-carbobenzoxyglycyl-L-phenylalanine substrate was investigated by the ninhydrin method. […] After the combined solutions stood at 25° C. for 5 minutes, 0.2 ml of an enzyme solution was added, and the solution was incubated at 25° C. for 15 minutes. The reaction was stopped by adding 1 ml of a 3 M acetate buffer solution (pH 5.0) in an ice bath. The ninhydrin reagent was added to effect color development according to the Yemn & Cocking method. The enzyme activity for a casein substrate was investigated by the Kunitz method. Enzyme activities of the enzyme of the invention for benzoylglycyl-L-arginine and elastin were also investigated by the respective methods above. Enzyme activity was observed only for Nα-carbobenzoxyglycyl-L-phenylalanine and casein.
(9) Michaelis constant and maximum reaction velocity

We go through one protein from patent publication US4415667A, “Carboxypeptidase a gamma and process for preparing same” (Eisai Co., Ltd., priority 1981, dated 1983).

B1: porcine pancreas carboxypeptidase Aγ (new species, obtained in Example 1; NH2-terminal sequence beginning with Asn) (Sus scrofa) (protein)
chain: NYATYHTLEEIYDFMDILVAEHPQLVSKLQIGSSYEGRPIYVLKFSTGGNNRPAIWIDTGIHSREWVTQASGVWFAKKITEDYGQDPAFTAILDNLDIFLEIVTNPDGFAFTHSENRMWRKTRSRTSGSFCVGVDPNRNWDAGFGGAGASSNPCSETYHGKFPNSEVEVKSIVDFVNDHGNIKAFISIHSYSQLLLYPYGYKTEAPADKDELDQISKSAVAALTSLYGTKFQYGSIITTIYQASGGTIDWTYNQGIKYSFSFELRDTGRYGFLLPASQIIPTAQETWLALLTIMEHTLNHPY
notes: from tissue; host or cells: porcine pancreas (from the unit heads)
Consider B1, for which the Km came out at 20 mM and the Vmax was determined as 235.5 µmol/min/mg.
